The series concerns T1, O=[N+]([O-])c1ccc(O[C@@H]2OC[C@@H](O[C@@H]3OC[C@@H](O)[C@H](O)[C@H]3O)[C@H](O)[C@H]2O)cc1.
T1 construct: mature form Leu20-Ser216 (197 residues), signal peptide removed, N-terminal His6 tag (pRham N-His), E. coli 10G, synthetic codon-optimised gene, monomer, 22,340 Da
Kind of series: purified protein. It counts as biochemical, Rhizopus arrhizus. Particulars: 20 mM sodium acetate, pH 5.0, 37 °C, free enzyme without OsXIP.

Chain of RXyn2 (Rhizopus arrhizus) (chain, as listed by the source): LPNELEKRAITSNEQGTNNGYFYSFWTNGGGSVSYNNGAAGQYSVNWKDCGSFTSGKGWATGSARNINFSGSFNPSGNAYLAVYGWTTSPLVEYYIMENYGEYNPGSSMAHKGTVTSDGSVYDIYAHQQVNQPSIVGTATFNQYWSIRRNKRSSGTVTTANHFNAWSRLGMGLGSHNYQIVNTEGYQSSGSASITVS

For RXyn2 (Rhizopus arrhizus), the Km came out at 5.05 ± 0.29 mM.

For orientation: Km means the concentration of substrate that gives half-maximal velocity.

For the origin of these results see PMC12329526, “Molecular arrangements that accompany binding of rice xylanase inhibitor protein OsXIP and the Rhizopus oryzae GH11 xylanase RXyn2” (The Journal of Biological Chemistry, 2025).
